According to the supplement of paper PMC10567573:

B1: FADS1 (parent)
chain: LNFQIEHHLFPTMPRHNYHKVAPL
B2: ATE1 (parent)
chain: DYFPSEDFYRCGYCKNESGSRSNG

Variants of: B1
Test: protein stability index of a GFP-peptide fusion (GPS, HEK-293T) (PSI 1-6); higher = more stable
Conditions: c terminus: a fixed tail appended
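Further: lentivirally expressed fusions sorted by FACS into six bins by GFP to DsRed ratio, PSI derived from sequencing read proportions per bin multiplied by bin number.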

Variant | protein stability index
Y18L | 1.69
Y18M | 2.18
Y18N | 1.81
Y18P | 2.99
Y18Q | 2.17
Y18R | 1.64
Y18S | 1.69
Y18T | 2.27
Y18V | 1.51
Y18W | 2.78
H19A | 2.85
H19D | 3.43
H19E | 2.25
H19F | 1.81
H19G | 3.11
H19I | 3.24
H19K | 2.3
H19L | 1.54
H19M | 3.8
H19N | 2.27
H19P | 3.38
H19Q | 2
H19R | 1.88

Variant | protein stability index
H19S | 2.35
H19V | 2.8
H19W | 3.52
H19Y | 2.58
K20A | 1.9
K20C | 2.2
K20D | 2.29
K20E | 1.94
K20G | 1.99
K20H | 1.46
K20I | 2.65
K20L | 3.03
K20M | 2.3
K20N | 2.58
K20P | 2.71
K20Q | 3.36
K20R | 2.76
K20T | 1.79
K20V | 1.2
K20Y | 3.23
V21A | 1.32
V21C | 2.38
V21D | 2.41

Variant | protein stability index
V21E | 2.32
V21F | 2.85
V21G | 2.38
V21H | 1.92
V21I | 3.07
V21K | 1.83
V21L | 2.24
V21M | 2.5
V21N | 1.58
V21P | 2.39
V21Q | 1.46
V21R | 1.7
V21S | 1.98
V21T | 2.23
V21W | 2.14
V21Y | 1.94
A22C | 1.65
A22D | 1.92
A22E | 1.85
A22F | 1.78
A22G | 1.05
A22H | 1.89
A22I | 3.37

Variant | protein stability index
A22K | 1.89
A22L | 2.05
A22M | 3.28
A22N | 1.69
A22P | 2.1
A22Q | 2.06
A22R | 1.99
A22S | 2.91
A22T | 2.09
A22V | 2.82
A22W | 2.34
A22Y | 2.21
P23A | 2.81
P23C | 1.88
P23D | 1.33
P23E | 2.21
P23G | 2.97
P23I | 2.42
P23K | 1.54
P23L | 2.4
P23M | 2.06
P23N | 2.09
P23Q | 2.63

Variant | protein stability index
P23R | 1.69
P23S | 1.88
P23W | 2.27
P23Y | 1.79
L24A | 1.71
L24C | 2.52
L24D | 2.03
L24E | 2.33
L24F | 2.15
L24G | 2.35
L24H | 2.27
L24I | 3.69
L24K | 1.79
L24M | 1.81
L24N | 2.15
L24P | 2.3
L24Q | 2.02
L24R | 1.51
L24S | 1.15
L24T | 1.56
L24V | 1.5
L24W | 2.03
L24Y | 3.02

Variants of: B2
Test: as above
Conditions: c terminus: a fixed tail appended

Variant | protein stability index
D1A | 2.3
D1C | 2.26
D1E | 1.65
D1F | 1.84
D1H | 2.58
D1I | 1.23
D1K | 2.28
D1L | 2.38
D1M | 2.06
D1N | 2
D1P | 2.35
D1Q | 1.89
D1R | 1.74
D1S | 2.15
D1T | 2.24
D1V | 2.58
D1W | 3.35
D1Y | 3.1
Y2A | 3.05
Y2C | 2.82
Y2D | 2.53
Y2E | 2.63
Y2F | 1.82
Y2G | 2.56
Y2H | 2.37

Variant | protein stability index
Y2I | 2.09
Y2K | 2.38
Y2L | 2.43
Y2M | 1.36
Y2N | 2.36
Y2P | 2.64
Y2R | 4.56
Y2S | 2.44
Y2T | 2.63
Y2V | 2.18
Y2W | 1.24
F3A | 2.45
F3C | 1.49
F3D | 2.61
F3G | 3.35
F3H | 1.8
F3I | 2.27
F3K | 2.44
F3L | 1.83
F3M | 2.99
F3N | 2.08
F3P | 3.21
F3Q | 3.12
F3R | 2.58
F3S | 2.83

Variant | protein stability index
F3T | 2.45
F3V | 2.13
F3W | 2.85
F3Y | 2.14
P4C | 2.08
P4D | 2.07
P4E | 2.21
P4F | 1.43
P4H | 1.29
P4I | 1.45
P4K | 1.92
P4L | 2.53
P4M | 2.59
P4N | 2.16
P4Q | 2.77
P4R | 1.79
P4S | 3.09
P4T | 2.26
P4V | 1.18
P4W | 1.08
S5A | 2.19
S5C | 1.52
S5D | 2.46
S5F | 2.01
S5G | 2.17

Variant | protein stability index
S5H | 1.98
S5I | 1.88
S5K | 2.02
S5L | 1.61
S5M | 1.42
S5N | 1.61
S5P | 2.32
S5Q | 2.41
S5R | 1.7
S5T | 2.15
S5V | 2.16
S5Y | 2.83
E6A | 1.81
E6C | 1.85
E6D | 1.92
E6F | 1.56
E6G | 1.65
E6H | 2.17
E6K | 1.35
E6L | 1.85
E6M | 2.38
E6N | 1.68
E6P | 2.24
E6Q | 1.92
E6R | 1.53

Variant | protein stability index
E6S | 1.8
E6T | 2.94
E6V | 1.45
E6W | 2.04
E6Y | 1.74
D7A | 1.63
D7F | 1.17
D7G | 1.85
D7H | 1.76
D7I | 1.11
D7K | 2.53
D7L | 2.29
D7M | 1.83
D7N | 2.28
D7P | 2.71
D7Q | 3.11
D7R | 1.93
D7S | 2.24
D7T | 2.15
D7W | 1.7
D7Y | 2.85
F8A | 2.32
F8C | 2.54
F8D | 2.44
F8E | 3.77

Variant | protein stability index
F8G | 2.48
F8H | 2.19
F8I | 2.35
F8K | 2.49
F8L | 2.19
F8M | 2.56
F8N | 2.16
F8P | 3
F8Q | 2.81
F8R | 2.91
F8T | 2.63
F8V | 3.1
F8Y | 1.93
Y9A | 2.99
Y9C | 3.12
Y9D | 2.42
Y9E | 2.43
Y9F | 1.92
Y9H | 1.82
Y9I | 1.88
Y9K | 2.37
Y9L | 2.01
Y9M | 2.69
Y9N | 2.18
Y9P | 2.57

Variant | protein stability index
Y9Q | 2.14
Y9S | 2.36
Y9T | 2.98
Y9V | 2.21
Y9W | 2.46
R10A | 2.71
R10C | 1.43
R10D | 2.31
R10E | 2.6
R10F | 1.98
R10G | 2.35
R10H | 1.82
R10I | 1.88
R10K | 2.44
R10L | 1.69
R10M | 2.21
R10P | 2.47
R10S | 2.2
R10T | 2.2
R10V | 3.04
R10W | 2.33
R10Y | 2.99
C11A | 3.73
C11D | 4.21
C11E | 4.92

Variant | protein stability index
C11F | 3.46
C11G | 4.36
C11H | 4.4
C11I | 3.83
C11K | 4.17
C11L | 2.96
C11M | 4.12
C11N | 3.84
C11P | 4.15
C11Q | 4.36
C11R | 3.9
C11S | 3.54
C11T | 4.55
C11V | 3.73
C11W | 4.12
C11Y | 3.42
G12A | 3.25
G12C | 2.01
G12D | 3.03
G12E | 3.04
G12F | 3.18
G12I | 2.84
G12K | 2.68
G12L | 2.63
G12M | 2.77

Variant | protein stability index
G12N | 2.69
G12P | 1.93
G12Q | 2.64
G12R | 4.05
G12S | 3.15
G12T | 2.99
G12V | 2.4
G12W | 3.35
G12Y | 2.49
Y13A | 2.76
Y13C | 2.18
Y13E | 4.41
Y13F | 2.4
Y13G | 3.4
Y13H | 3.21
Y13I | 2.91
Y13K | 3.5
Y13L | 2.03
Y13M | 3.8
